Assay results as given in US8003342.

Target: rat brain farnesyl:protein transferase (rat) (UniProt Q04631)
Assay: cell-based or functional assay

| Substance | fold decline of affinity [fold] | concentration giving 50% inhibition [µM] | fold decrease of affinity against CVIM, from the concentration required for 50% inhibition [fold] |
| --- | --- | --- | --- |
| CVIM with glutamic acid at the A2 position (peptide) | > 50 | – | – |
| CVIM with glutamic acid at the X position (peptide) | – | > 40 | – |
| CVIM with glycine at the X position (peptide) | – | > 40 | – |
| CVIM with lysine at the A2 position (peptide) | > 50 | – | > 30 |
| CVIM with lysine at the X position (peptide) | – | > 40 | > 30 |
